Measured values taken from patent US20210380994A1, “LACTOCOCCUS LACTIS EXPRESSION SYSTEM FOR DELIVERING PROTEINS EFFICACIOUS FOR THE TREATMENT OF EPITHELIAL BARRIER FUNCTION DISORDERS” (Second Genome, Inc., priority 2018, published 2021).

How the values were obtained:
[1] = system: human colonic epithelial cells (HCT8 enterocytes and HT29-MTX goblet cells); assay: trans-epithelial electrical resistance (TEER) assay, epithelial/monocyte co-culture disrupted by heat killed E. coli; assay type: cell-based
Method: Assays were performed as described below in trans-well plates where co-cultures of multiple cell types were performed utilizing a permeable membrane to separate cells. In the apical (top) chamber, human colonic epithelial cells, consisting of a mixture of enterocytes and goblet cells, were cultured until cells obtained tight junction formation and barrier function capacity as assessed by measurement of trans-epithelial electrical resistance (TEER). In the basolateral chamber, monocytes were cultured separately. Epithelial […] were primed with inflammatory cytokines. The assays measured the effect of a therapeutic protein, e.g., SG-11, on epithelial barrier function, muc2 gene expression, and production of cytokines.
Cell culture. The HCT8 human enterocyte cell line (ATCC Cat. No. CCL-244) was maintained in RPMI-1640 medium supplemented with 10% fetal bovine seam, 100 IU/ml penicillin, 100 ? g/ml streptomycin, 10 ? g/ml gentamicin and 0.25 μg/ml amphotericin (cRPMI). HT29-MTX human goblet cells (Sigma-Aldrich (St. Louis, Mo.; Cat. No. 12040401) were maintained in DMEM medium with 10% fetal bovine serum, 100 IU/ml penicillin, 100 ? g/ml streptomycin, 10 ? g/ml gentamicin and 0.25 μg/ml amphotericin (cDMEM). Epithelial cells were passaged by trypsinization and were used between 5 and 15 passages following thawing from liquid nitrogen stocks. U937 monocytes (ATCC Cat. No. 700928) were maintained in cRPMI medium as a suspension culture, and split by dilution as needed to maintain cells between 5×10^5 and 2×10^6 cell/ml. U937 cells were used up to passage 18 following thawing from liquid nitrogen stocks.
Epithelial cell culture. A mixture of HCT8 enterocytes and HT29-MTX goblet cells were plated at a 9:1 ratio, respectively, in the apical chamber of the transwell plate as described previously (Berget et al., 2017, Int J Mol Sci, 18:1573; Beduneau et al., 2014. Eur J Pharm Biopharm, 87:290-298). A total of 10^5 cells were plated in each well (9×10^4 HCT cells and 1×10^4 HT29-MTX cells per well). Epithelial cells were trypsinized from culture flasks and viable cells determined by trypan blue counting. The correct volumes of each cell type were combined in a single tube and centrifuged. The cell pellet was resuspended in cRPMI and added to the apical chamber of the transwell plate. Celle were cultured for 8 to 10 days at 37° C.+5% CO2, and media was changed every 2 days.
Monocyte culture. On day 6 of epithelial cell culture 2×10^5 cells/well U937 monocytes were plated into a 96 well receiver plate. Cells were cultured at 37° C.+5% CO2 and media was changed every 24 hours for four days.
Co-culture assay. Following 8-10 days of culture, 10 ng/ml IFN-© was added to the basolateral chamber of the transwell plate containing enterocytes, for 24 hours at 37° C.+5% CO2. After 24 hours, fresh cRPMI was added to the epithelial cell culture plate. TEER readings were measured after the IFN-© treatment and were used as the pre-treatment TEER value. SG-11 was then added to the apical chamber of the transwell plate at a final concentration of 1 ? g/ml (40 nM). The myosin light chain kinase (MLCK) inhibitor peptide 18 (BioTechne, Minneapolis, Minn.) was used at 50 nM as a positive control to prevent inflammation induced barrier disruption (Zolotarevsky et al., 2002, Gastroenterology. 123:163-172). […]

[2] = system: Syrian Golden Hamsters, mucositis of the left buccal cheek pouch; assay: radiation-induced oral mucositis model; assay type: in vivo, hamster; conditions: for % Days ≥3 (percent of animal days with a mucositis score ≥3): Vehicle 59.52%; for Days <3 (animal days with a mucositis score <3) / Days ≥3 (animal days with a mucositis score ≥3): through Day 28; for days of improvement in mucositis scores compared to the Vehicle control group: topical b.i.d.
Method: Forty-eight (48) male Syrian Golden Hamsters were used in the study.
Mucositis was induced by administering a single dose of radiation (40 Gy) directed to the left buccal cheek pouch at a rate of 2-2.5 Gy/min administered on Day 0. Radiation was generated with a 160 kilovolt potential (18.75-ma) source at a fecal distance of 10 cm, hardened with a 3.0 mm Al filtration system. Prior to irradiation, animals were anesthetized with an intraperitoneal injection of ketamine (160 mg/kg) and xylazine (8 mg/kg). The left buccal pouch was everted, fixed and isolated using a lead shield. Mucositis was evaluated clinically starting on Day 6 and continuing on alternate days until Day 28. The acute model has little systemic toxicity, resulting in few hamster deaths, thus permitting the use of smaller groups (n=7-8) for initial efficacy studies. It has abo been used to study specific mechanistic elements in the pathogenesis of mucositis.
The animals were divided into 6 treatment groups in which they were administered: Test agents (SG-11 or SG-11V5), a positive control (proprietary to Biomodels, LLC, Watertown, Mass.) or vehicle only were given by topical application to the left cheek pouch as detailed in Table 15 below.
On Day 0, morning dosing was performed at least 1 hour prior to irradiation and at least 1 hour post-irradiation (for PM dose). On Day 28, animals were euthanized and the left cheek pouch rom animals in Groups 1, and Groups 3-6 were excised, placed in a cryovial, snap frozen, and stored at −80° C. until shipment.
Starting on Day 6 and continuing every second day thereafter (Days 8, 10, 12, 14, 16, 18, 20, 22, 24, 26, 28) each animal was photographed and evaluated for mucositis scoring. For the evaluation of mucositis, the animals were anesthetized with an inhalation anesthetic and the left pouch everted. Mucositis was scored visually by comparison to a validated photographic scale (FIG. 37A), ranging from 0 for normal, to 5 for severe ulceration (clinical scoring). In descriptive terms, this scale is defined in Table 16.
A score of 1-2 is considered to represent a mild stage of the disease, whereas a score of […] is considered to indicate moderate to severe ulcerative mucositis. At the conclusion of the experiment, the photographs were randomly numbered and scored by two independent, trained observers who graded the images in blinded fashion using the above-described scale (blinded scoring). Hamsters reaching a mucositis severity score of 4 or higher received buprenorphine (0.5 mg/kg) SC twice a day for 48 hours or until score dropped below 4.
Statistical significance of observed differences was calculated using chi-squared analysis. The significance of differences observed between the control and treatment groups was evaluated by comparing the days with mucositis scores ≥3 and <3 between groups using chi-square analysis. The results of this analysis are shown in Table 17 far the entire study duration (through Day 28). Over the course of the study (Table 17), the percentage of animal days with a score of ≥3 in the Vehicle Group was 59.52%.

[3] = Example 12, 1 μg/ml (40 nM), 6 hours pre-incubation, SG-11 = SEQ ID NO:9, HK E. coli alone 78.6%, FIG. 17
[4] = 0.75 mg/ml, 0.2 ml topical b.i.d., SG-11 Day 16, SG-11V5 Days 16 and 18, Vehicle 3.29

B1: SG-11: Roseburia hominis protein comprising SEQ ID NO:3; tested as SEQ ID NO:5, SEQ ID NO:7 or FLAG-tagged SEQ ID NO:9 (protein, listed as Rosburia hominis)
chain: LEGEESVVYVGKKGVIASLDVETLDQSYYDETELKSYVDAEVEDYTAEHGKNAVKVESLKVEDGVAKLKMKYKTPEDYTAFNGIELYQGKVVASLAAGYVYDGEFARVEEGKVVGAATKQDIYSEDDLKVAIIRANTDVKVDGEICYVSCQNVKLTGKDSVSIRDGYYLETGSVTASVDVTGQESVGTEQLSGTEQMEMTGEPVNADDTEQTEAAAGDGSFETDVYTFIVYK
In the case of B1, the “TEER following disruption by HK E. coli” value [1, 3] is reported as 89.5%, the “TEER following disruption by HK E. coli” value ([1]; Example 15, 1 μg/ml, 6 hours pre-incubation, SG-11 = SEQ ID NO:9, HK E. coli alone 78.6%, FIG. 28) is reported as 89.5% and the “TEER following disruption by HK E. coli” value ([1]; SG-11 1 μg/ml added 6 hours prior to HK E. coli, HK E. coli alone 53.5%, FIG. 1B) is reported as 60.6%. For the same molecule, the “TEER following disruption by HK E. coli” value ([1]; SG-11 (SEQ ID NO:5 or 9) 1 μg/ml (40 nM) added 30 minutes prior to HK E. coli, HK E. coli alone 55.8%, FIG. 1A) was 62%, the “% Days ≥3 (percent of animal days with a mucositis score ≥3)” value ([2]; 0.75 mg/mL) was 50.00% and the “Days <3 (animal days with a mucositis score <3)” value ([2]; 0.75 mg/mL) was 96. For the same molecule, the “Days ≥3 (animal days with a mucositis score ≥3)” value ([2]; 0.75 mg/mL) was 96, the “peak mean mucositis score (scale 0-5)” value [2, 4] was 3.25 and the “days of improvement in mucositis scores compared to the Vehicle control group” value [2] was “one day of improvement”.

B2: SG-11V5: variant of SEQ ID NO:7 with N53S, N83S, C147V, C151S (protein)
chain: MLEGEESVVYVGKKGVIASLDVETLDQSYYDETELKSYVDAEVEDYTAEHGKSAVKVESLKVEDGVAKLKMKYKTPEDYTAFSGIELYQGKVVASLAAGYVYDGEFARVEEGKVVGAATKQDIYSEDDLKVAIIRANTDVKVDGEIVYVSSQNVKLTGKDSVSIRDGYYLETGSVTASVDVTGQESVGTEQLSGTEQMEMTGEPVNADDTEQTEAAAGDGSFETDVYTFIVYK
modifications: Artificial variant of SG-11 (N53S, N83S, C147V, C151S)
In the case of B2, the “TEER following disruption by HK E. coli” value [1, 3] is reported as 89.1%, the “Days <3 (animal days with a mucositis score <3)” value ([2]; 0.075 mg/mL) is reported as 106 and the “Days ≥3 (animal days with a mucositis score ≥3)” value ([2]; 0.075 mg/mL) is reported as 86. The “peak mean mucositis score (scale 0-5)” value ([2]; 0.075 mg/ml topical b.i.d., Days 16 and 18) was 3.00, the “% Days ≥3 (percent of animal days with a mucositis score ≥3)” value ([2]; 0.24 mg/mL) was 53.65% and the “Days <3 (animal days with a mucositis score <3)” value ([2]; 0.24 mg/mL) was 89. For the same molecule, the “Days ≥3 (animal days with a mucositis score ≥3)” value ([2]; 0.24 mg/mL) was 103, the “peak mean mucositis score (scale 0-5)” value ([2]; 0.24 mg/ml topical b.i.d., Days 16 and 18) was 3.13 and the “Days <3 (animal days with a mucositis score <3)” value ([2]; 0.75 mg/mL) was 120. For the same molecule, the “Days ≥3 (animal days with a mucositis score ≥3)” value ([2]; 0.75 mg/mL) was 72, the “peak mean mucositis score (scale 0-5)” value [2, 4] was 2.63 and the “days of improvement in mucositis scores compared to the Vehicle control group” value [2] was “multiple days”.
